Data from patent publication US20180022780A1 (Bayer, published 2018).
Where a chain is given by its changes, count along the chain named. Bridge positions count the residues as written; N and C are the ends. Square brackets hold non-standard residues; d marks the D form. Ends that are not written are not given here. * marks the point of attachment. Palmitoyl = CCCCCCCCCCCCCCCC(=O)*; NMeK = CN[C@@H](CCCCN)C(=O)O; Orn = NCCC[C@H](N)C(=O)O; Dab = NCC[C@H](N)C(=O)O; Dap = NC[C@H](N)C(=O)O

B1: [G^14, (U^16→U^21)]ADM(14-52) (peptide)
peptide: GGXRFGTXTVQKLAHQIYQFTDKDKDNVAPRSKISPQGY
modifications: positions 16 and 21 (residues 3 and 8 of the letters) together are 2,7-diaminosuberic acid (U^16→U^21, biscarba disulfide bond mimetic); X stands for the printed U; C-terminal amide
B2: [K^14(PAM), (Dpr^16, E^21)lac]ADM(14-52) (peptide)
peptide: K(Palmitoyl)G[Dap]RFGTETVQKLAHQIYQFTDKDKDNVAPRSKISPQGY-NH2
modifications: lactam 3-8; also: acetate salt
B3: [G^14, (E^16, Orn^21)lac]ADM(14-52) (peptide)
peptide: GGERFGT[Orn]TVQKLAHQIYQFTDKDKDNVAPRSKISPQGY-NH2
modifications: lactam 3-8
B4: [G^14, (K^16, E^21)lac]ADM(14-52) (peptide)
peptide: GGKRFGTETVQKLAHQIYQFTDKDKDNVAPRSKISPQGY-NH2
modifications: lactam 3-8; N-terminus assumed
SMILES: CC[C@H](C)[C@H](NC(=O)[C@H](CCC(N)=O)NC(=O)[C@H](Cc1c[nH]cn1)NC(=O)[C@H](C)NC(=O)[C@H](CC(C)C)NC(=O)[C@H](CCCCN)NC(=O)[C@H](CCC(N)=O)NC(=O)[C@@H](NC(=O)[C@@H](NC(=O)[C@@H]1CCC(=O)NCCCC[C@H](NC(=O)CNC(=O)CN)C(=O)N[C@@H](CCCNC(=N)N)C(=O)N[C@@H](Cc2ccccc2)C(=O)NCC(=O)N[C@@H]([C@@H](C)O)C(=O)N1)[C@@H](C)O)C(C)C)C(=O)N[C@@H](Cc1ccc(O)cc1)C(=O)N[C@@H](CCC(N)=O)C(=O)N[C@@H](Cc1ccccc1)C(=O)N[C@H](C(=O)N[C@@H](CC(=O)O)C(=O)N[C@@H](CCCCN)C(=O)N[C@@H](CC(=O)O)C(=O)N[C@@H](CCCCN)C(=O)N[C@@H](CC(=O)O)C(=O)N[C@@H](CC(N)=O)C(=O)N[C@H](C(=O)N[C@@H](C)C(=O)N1CCC[C@H]1C(=O)N[C@@H](CCCNC(=N)N)C(=O)N[C@@H](CO)C(=O)N[C@@H](CCCCN)C(=O)N[C@H](C(=O)N[C@@H](CO)C(=O)N1CCC[C@H]1C(=O)N[C@@H](CCC(N)=O)C(=O)NCC(=O)N[C@@H](Cc1ccc(O)cc1)C(N)=O)[C@@H](C)CC)C(C)C)[C@@H](C)O
B5: [G^14, (Orn^16, E^21)lac]ADM(14-52) (peptide)
peptide: GG[Orn]RFGTETVQKLAHQIYQFTDKDKDNVAPRSKISPQGY-NH2
modifications: lactam 3-8; N-terminus assumed
SMILES: CC[C@H](C)[C@H](NC(=O)[C@H](CCC(N)=O)NC(=O)[C@H](Cc1c[nH]cn1)NC(=O)[C@H](C)NC(=O)[C@H](CC(C)C)NC(=O)[C@H](CCCCN)NC(=O)[C@H](CCC(N)=O)NC(=O)[C@@H](NC(=O)[C@@H](NC(=O)[C@@H]1CCC(=O)NCCC[C@H](NC(=O)CNC(=O)CN)C(=O)N[C@@H](CCCNC(=N)N)C(=O)N[C@@H](Cc2ccccc2)C(=O)NCC(=O)N[C@@H]([C@@H](C)O)C(=O)N1)[C@@H](C)O)C(C)C)C(=O)N[C@@H](Cc1ccc(O)cc1)C(=O)N[C@@H](CCC(N)=O)C(=O)N[C@@H](Cc1ccccc1)C(=O)N[C@H](C(=O)N[C@@H](CC(=O)O)C(=O)N[C@@H](CCCCN)C(=O)N[C@@H](CC(=O)O)C(=O)N[C@@H](CCCCN)C(=O)N[C@@H](CC(=O)O)C(=O)N[C@@H](CC(N)=O)C(=O)N[C@H](C(=O)N[C@@H](C)C(=O)N1CCC[C@H]1C(=O)N[C@@H](CCCNC(=N)N)C(=O)N[C@@H](CO)C(=O)N[C@@H](CCCCN)C(=O)N[C@H](C(=O)N[C@@H](CO)C(=O)N1CCC[C@H]1C(=O)N[C@@H](CCC(N)=O)C(=O)NCC(=O)N[C@@H](Cc1ccc(O)cc1)C(N)=O)[C@@H](C)CC)C(C)C)[C@@H](C)O
B6: [G^14, (K^16, D^21)lac]ADM(14-52) (peptide)
peptide: GGKRFGTDTVQKLAHQIYQFTDKDKDNVAPRSKISPQGY-NH2
modifications: lactam 3-8; N-terminus assumed
SMILES: CC[C@H](C)[C@H](NC(=O)[C@H](CCC(N)=O)NC(=O)[C@H](Cc1c[nH]cn1)NC(=O)[C@H](C)NC(=O)[C@H](CC(C)C)NC(=O)[C@H](CCCCN)NC(=O)[C@H](CCC(N)=O)NC(=O)[C@@H](NC(=O)[C@@H](NC(=O)[C@@H]1CC(=O)NCCCC[C@H](NC(=O)CNC(=O)CN)C(=O)N[C@@H](CCCNC(=N)N)C(=O)N[C@@H](Cc2ccccc2)C(=O)NCC(=O)N[C@@H]([C@@H](C)O)C(=O)N1)[C@@H](C)O)C(C)C)C(=O)N[C@@H](Cc1ccc(O)cc1)C(=O)N[C@@H](CCC(N)=O)C(=O)N[C@@H](Cc1ccccc1)C(=O)N[C@H](C(=O)N[C@@H](CC(=O)O)C(=O)N[C@@H](CCCCN)C(=O)N[C@@H](CC(=O)O)C(=O)N[C@@H](CCCCN)C(=O)N[C@@H](CC(=O)O)C(=O)N[C@@H](CC(N)=O)C(=O)N[C@H](C(=O)N[C@@H](C)C(=O)N1CCC[C@H]1C(=O)N[C@@H](CCCNC(=N)N)C(=O)N[C@@H](CO)C(=O)N[C@@H](CCCCN)C(=O)N[C@H](C(=O)N[C@@H](CO)C(=O)N1CCC[C@H]1C(=O)N[C@@H](CCC(N)=O)C(=O)NCC(=O)N[C@@H](Cc1ccc(O)cc1)C(N)=O)[C@@H](C)CC)C(C)C)[C@@H](C)O
B7: [G^14, (D^16, K^21)lac]ADM(14-52) (peptide)
peptide: GGDRFGTKTVQKLAHQIYQFTDKDKDNVAPRSKISPQGY-NH2
modifications: lactam 3-8
B8: PAM[G^14, (C^16→U^21)]ADM(14-52) (peptide)
peptide: B1 peptide with X3C
modifications: palmitic acid (PAM) on the N-terminus (G14); positions 16 and 21 (residues 3 and 8 of the letters) together are cystathionine (C^16→U^21, thioether); X stands for the printed U at 21; C-terminal …
B9: [G^14, (D^16, Dpr^21)lac]ADM(14-52) (peptide)
peptide: GGDRFGT[Dap]TVQKLAHQIYQFTDKDKDNVAPRSKISPQGY-NH2
modifications: lactam 3-8
B10: [K^14(PAM), (Dpr^16,E^21)lac, N-Me-K^46]ADM(14-52) (peptide)
peptide: K(Palmitoyl)G[Dap]RFGTETVQKLAHQIYQFTDKDKDNVAPRS[NMeK]ISPQGY-NH2
modifications: lactam 3-8; N-terminus assumed
SMILES: CCCCCCCCCCCCCCCC(=O)NCCCC[C@H](N)C(=O)NCC(=O)N[C@H]1CNC(=O)CC[C@@H](C(=O)N[C@H](C(=O)N[C@H](C(=O)N[C@@H](CCC(N)=O)C(=O)N[C@@H](CCCCN)C(=O)N[C@@H](CC(C)C)C(=O)N[C@@H](C)C(=O)N[C@@H](Cc2c[nH]cn2)C(=O)N[C@@H](CCC(N)=O)C(=O)N[C@H](C(=O)N[C@@H](Cc2ccc(O)cc2)C(=O)N[C@@H](CCC(N)=O)C(=O)N[C@@H](Cc2ccccc2)C(=O)N[C@H](C(=O)N[C@@H](CC(=O)O)C(=O)N[C@@H](CCCCN)C(=O)N[C@@H](CC(=O)O)C(=O)N[C@@H](CCCCN)C(=O)N[C@@H](CC(=O)O)C(=O)N[C@@H](CC(N)=O)C(=O)N[C@H](C(=O)N[C@@H](C)C(=O)N2CCC[C@H]2C(=O)N[C@@H](CCCNC(=N)N)C(=O)N[C@@H](CO)C(=O)N(C)[C@@H](CCCCN)C(=O)N[C@H](C(=O)N[C@@H](CO)C(=O)N2CCC[C@H]2C(=O)N[C@@H](CCC(N)=O)C(=O)NCC(=O)N[C@@H](Cc2ccc(O)cc2)C(N)=O)[C@@H](C)CC)C(C)C)[C@@H](C)O)[C@@H](C)CC)C(C)C)[C@@H](C)O)NC(=O)[C@H]([C@@H](C)O)NC(=O)CNC(=O)[C@H](Cc2ccccc2)NC(=O)[C@H](CCCNC(=N)N)NC1=O
B11: [G^14, (Dpr^16, D^21)lac]ADM(14-52) (peptide)
peptide: GG[Dap]RFGTDTVQKLAHQIYQFTDKDKDNVAPRSKISPQGY-NH2
modifications: lactam 3-8; N-terminus assumed
SMILES: CC[C@H](C)[C@H](NC(=O)[C@H](CCC(N)=O)NC(=O)[C@H](Cc1c[nH]cn1)NC(=O)[C@H](C)NC(=O)[C@H](CC(C)C)NC(=O)[C@H](CCCCN)NC(=O)[C@H](CCC(N)=O)NC(=O)[C@@H](NC(=O)[C@@H](NC(=O)[C@@H]1CC(=O)NC[C@H](NC(=O)CNC(=O)CN)C(=O)N[C@@H](CCCNC(=N)N)C(=O)N[C@@H](Cc2ccccc2)C(=O)NCC(=O)N[C@@H]([C@@H](C)O)C(=O)N1)[C@@H](C)O)C(C)C)C(=O)N[C@@H](Cc1ccc(O)cc1)C(=O)N[C@@H](CCC(N)=O)C(=O)N[C@@H](Cc1ccccc1)C(=O)N[C@H](C(=O)N[C@@H](CC(=O)O)C(=O)N[C@@H](CCCCN)C(=O)N[C@@H](CC(=O)O)C(=O)N[C@@H](CCCCN)C(=O)N[C@@H](CC(=O)O)C(=O)N[C@@H](CC(N)=O)C(=O)N[C@H](C(=O)N[C@@H](C)C(=O)N1CCC[C@H]1C(=O)N[C@@H](CCCNC(=N)N)C(=O)N[C@@H](CO)C(=O)N[C@@H](CCCCN)C(=O)N[C@H](C(=O)N[C@@H](CO)C(=O)N1CCC[C@H]1C(=O)N[C@@H](CCC(N)=O)C(=O)NCC(=O)N[C@@H](Cc1ccc(O)cc1)C(N)=O)[C@@H](C)CC)C(C)C)[C@@H](C)O
B12: [G^14, (D^16, Dab^21)lac]ADM(14-52) (peptide)
peptide: GGDRFGT[Dab]TVQKLAHQIYQFTDKDKDNVAPRSKISPQGY-NH2
modifications: lactam 3-8

Experiments:
[1] = biological target: human adrenomedullin-receptor (human, UniProt Q16602 23-461); test: cell-based or functional assay
[2] = biological target: CLR fused to EYFP with RAMP2 fused to ECFP; test: cell-based or functional assay
Sequence of CLR fused to EYFP with RAMP2 fused to ECFP (Q16602 whole entry, chain 1 of 2, the tested form may be a part): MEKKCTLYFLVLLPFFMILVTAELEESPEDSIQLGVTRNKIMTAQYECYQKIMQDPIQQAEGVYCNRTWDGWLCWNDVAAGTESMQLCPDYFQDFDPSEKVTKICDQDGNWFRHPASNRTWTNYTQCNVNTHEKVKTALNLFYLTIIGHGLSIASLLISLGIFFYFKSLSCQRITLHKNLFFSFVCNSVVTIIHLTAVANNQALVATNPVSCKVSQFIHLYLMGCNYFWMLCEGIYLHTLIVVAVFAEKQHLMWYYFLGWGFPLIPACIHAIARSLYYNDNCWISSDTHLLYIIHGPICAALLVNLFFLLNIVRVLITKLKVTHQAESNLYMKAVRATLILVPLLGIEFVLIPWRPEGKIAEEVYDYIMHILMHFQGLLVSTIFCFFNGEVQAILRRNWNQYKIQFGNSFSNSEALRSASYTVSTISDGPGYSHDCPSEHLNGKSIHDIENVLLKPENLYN
Sequence of CLR fused to EYFP with RAMP2 fused to ECFP (O60895 whole entry, chain 2 of 2, further chain, the tested form may be a part): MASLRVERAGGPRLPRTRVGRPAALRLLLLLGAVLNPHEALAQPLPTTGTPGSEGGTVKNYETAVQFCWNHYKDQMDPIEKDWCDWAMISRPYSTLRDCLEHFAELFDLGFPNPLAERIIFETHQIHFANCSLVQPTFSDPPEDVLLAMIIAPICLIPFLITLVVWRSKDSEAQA

Sequence of human adrenomedullin-receptor (Q16602 23-461): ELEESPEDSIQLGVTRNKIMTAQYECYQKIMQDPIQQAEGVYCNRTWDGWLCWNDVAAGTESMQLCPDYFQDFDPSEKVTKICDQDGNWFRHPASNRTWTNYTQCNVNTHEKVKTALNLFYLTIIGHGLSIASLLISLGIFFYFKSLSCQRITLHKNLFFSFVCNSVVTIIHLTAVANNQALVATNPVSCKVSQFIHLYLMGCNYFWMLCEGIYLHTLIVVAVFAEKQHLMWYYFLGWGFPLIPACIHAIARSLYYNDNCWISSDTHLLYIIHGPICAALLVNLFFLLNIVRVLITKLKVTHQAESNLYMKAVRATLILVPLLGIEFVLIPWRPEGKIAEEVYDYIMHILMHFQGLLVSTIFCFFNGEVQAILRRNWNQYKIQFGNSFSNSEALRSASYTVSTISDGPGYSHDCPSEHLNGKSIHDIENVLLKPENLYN

Binder | EC50 [nM], aequorin luminescence of CHO adrenomedullin-receptor reporter cells [1] [nM] | EC50 [nM], cAMP assay (CRE-luciferase luminescence, HEK293 cells) [2] [nM]
B1 | > 1000 | > 1000
B2 | 22 | 2
B3 | > 1000 | 21
B4 | > 1000 | > 1000
B5 | 27 | 9.1
B6 | > 1000 | > 1000
B7 | 15 | 2.3
B8 | 15 | 16.9
B9 | 32 | > 1000
B10 | 56 | 3.4
B11 | 49.6 | 67
B12 | 21.1 | 21
